Data reported in publication PMC3521592 (Biochemistry, 2012).
Where two headings read alike, the source gives them in different places.

Columns and labels:
[1] = molecular target: T1, p300CH1, CH1 domain of human p300 (residues 323–424), untagged (human, UniProt Q09472 323-424); assay: pull-down
[2] = molecular target: T1, p300CH1, CH1 domain of human p300 …; assay: AUC
[3] = molecular target: T1, p300CH1, CH1 domain of human p300 …; assay: AUC; remark: listed apart in the source
[4] = molecular target: T2, untagged HPV16-E7_(1–98) (human papillomavirus 16 (HPV16)), P03129; assay: AUC; details: remark: other sources report otherwise
T2 chain: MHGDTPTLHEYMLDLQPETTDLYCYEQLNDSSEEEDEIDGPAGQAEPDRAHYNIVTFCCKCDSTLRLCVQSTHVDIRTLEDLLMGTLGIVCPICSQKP

T1 sequence (Q09472 323-424): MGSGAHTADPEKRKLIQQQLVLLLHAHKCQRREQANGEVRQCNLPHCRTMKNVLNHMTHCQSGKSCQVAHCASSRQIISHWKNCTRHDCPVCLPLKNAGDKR

Binder	stoichiometry N [2]	stoichiometry N [3]	also measured
MHGDTPTLHEYMLDLQPETTDLYCYEQLNDSSEEEDEIDGPAGQAE (domain or fragment) [GST-HPV16-E7_(1–46)]	–	–	binding result [1]: binds
6xHis-Ad5-E1A_(1–189) (domain or fragment) MRHIICHGGVITEEMAASLLDQLIEEVLADNLPPPSHFEPPTLHELYDLDVTAPEDPNEEAVSQIFPDSVMLAVQEGIDLLTFPPAPGSPEPPHLSRQPEQPEQRALGPVSMPNLVPEVIDLTCHEAGFPPSDDEDEEGEEFVLDYVEHPGHGCRSCHYHRRNTGDPDIMCSLCYMRTCGMFVYSPVSE	1	–	–
untagged Ad5-E1A_(1–77) (domain or fragment) MRHIICHGGVITEEMAASLLDQLIEEVLADNLPPPSHFEPPTLHELYDLDVTAPEDPNEEAVSQIFPDSVMLAVQEG	1	–	–
untagged HPV16-E7_(1–51) (domain or fragment) MHGDTPTLHEYMLDLQPETTDLYCYEQLNDSSEEEDEIDGPAGQAEPDRAH	–	1	–
6xHis-Ad5-E1A_(1–138) (domain or fragment) MRHIICHGGVITEEMAASLLDQLIEEVLADNLPPPSHFEPPTLHELYDLDVTAPEDPNEEAVSQIFPDSVMLAVQEGIDLLTFPPAPGSPEPPHLSRQPEQPEQRALGPVSMPNLVPEVIDLTCHEAGFPPSDDEDEE	1	–	–
untagged HPV16-E7_(1–98) (natural protein) MHGDTPTLHEYMLDLQPETTDLYCYEQLNDSSEEEDEIDGPAGQAEPDRAHYNIVTFCCKCDSTLRLCVQSTHVDIRTLEDLLMGTLGIVCPICSQKP	–	1	stoichiometry N [4]: 2
